In patent publication US20150098945A1 (Daiichi Sankyo, published 2015):

Target: T1, N-terminal FLAG-tagged human ROBO4 extracellular region/domain deletion variant hROBO4-132 (human, UniProt Q8WZ75 132-1007)
T1 construct: On transfected HEK293 cells; also called pCI-FLAG-hROBO4-132; pCI-hROBO4-132
T1 sequence: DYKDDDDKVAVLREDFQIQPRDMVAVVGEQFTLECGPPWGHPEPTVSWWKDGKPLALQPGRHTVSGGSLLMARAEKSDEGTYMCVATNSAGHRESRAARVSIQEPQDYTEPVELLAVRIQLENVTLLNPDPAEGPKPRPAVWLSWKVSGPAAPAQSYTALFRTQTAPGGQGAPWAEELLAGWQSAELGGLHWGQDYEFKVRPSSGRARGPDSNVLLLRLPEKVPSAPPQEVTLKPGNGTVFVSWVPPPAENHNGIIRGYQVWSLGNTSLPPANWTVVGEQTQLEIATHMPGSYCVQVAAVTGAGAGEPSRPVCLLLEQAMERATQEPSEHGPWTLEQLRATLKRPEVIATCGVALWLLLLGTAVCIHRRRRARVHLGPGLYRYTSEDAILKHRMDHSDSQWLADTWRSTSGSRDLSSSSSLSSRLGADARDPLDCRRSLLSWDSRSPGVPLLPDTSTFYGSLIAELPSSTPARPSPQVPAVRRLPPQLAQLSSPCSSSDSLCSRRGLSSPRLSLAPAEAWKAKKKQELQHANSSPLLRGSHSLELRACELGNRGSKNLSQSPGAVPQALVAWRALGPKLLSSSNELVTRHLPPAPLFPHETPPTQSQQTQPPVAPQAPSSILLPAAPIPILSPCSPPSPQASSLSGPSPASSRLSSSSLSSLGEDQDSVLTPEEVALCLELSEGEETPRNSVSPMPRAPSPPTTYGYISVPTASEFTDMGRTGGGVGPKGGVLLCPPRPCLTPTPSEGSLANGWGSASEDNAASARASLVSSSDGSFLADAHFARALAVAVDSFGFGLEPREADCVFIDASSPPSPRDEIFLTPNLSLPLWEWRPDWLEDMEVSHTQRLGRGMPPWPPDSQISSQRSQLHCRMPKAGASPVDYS
Assay: flow cytometry, HEK293 cells transfected with pCI-FLAG-hROBO4-132, antibody at 10 µg/mL, anti-mouse IgG FITC; control histogram IgG (Mouse IgG2a)
Experimental: HEK293 cells were inoculated at a concentration of 1.5×10⁶ cells/dish to a 60-mm dish (manufactured by Corning Inc.) and cultured overnight in a DMEM medium containing 10% FBS at 37° C. under 5% CO₂ conditions. […] On the next day, the expression vector-transfected cells were treated with TrypLE Express (manufactured by Life Technologies Corp.), washed with PBS containing 5% FBS, and then suspended in PBS containing 5% FBS. The obtained cell suspension was used in flow cytometry analysis.
Each cell suspension prepared in 4)-5-1 was centrifuged, and the supernatant was removed. Then, MAb1, a positive control Monoclonal ANTI-FLAG M2 antibody produced in mouse, or a negative control Mouse IgG2a was added at a concentration of 10 μg/mL to 2×10⁵ expression vector-transfected cells, and the resulting suspension was left standing at 4° C. for 1 hour. The cells were washed once with PBS containing 5% FBS. Then, Anti-Mouse IgG FITC conjugate diluted 1000-fold with PBS containing 5% FBS was added thereto, and the resulting suspension was left standing at 4° C. for 1 hour. […] Data was analyzed using Flowjo. The histogram of FITC fluorescence intensity was prepared. The antibody was determined to bind to a cell when the histogram of MAb1 was shifted to a stronger fluorescence intensity region compared with the histogram of the negative control Mouse IgG2a. […]

- binding result: binds
B1: anti-ROBO4 mouse monoclonal antibody MAb1 (antibody, mouse IgG1, V domains shown)
VH: EVQLVESGGGLVKPGGSLKLSCAASGFTFSTYAMSWVRQTPEKRLEWVATISNGGTYTYYPDSVKGRFTISRDNAENTLYLQMSSLRSEDTAMYFCARLIYYDYLDYWGHGTTLTVSS
VL: DAVMTQTPLSLPVSLGDQASISCRSSQSLENSNGNTYLNWYFQKPGQSPQLLIYRVSNRFSGVLDRFSGSGSGTDFTLKISRVEAEDFGVYFCLQVTHVPWTFGGGTKLEIKR
notes: Mouse IgG1 (gamma1), kappa light chain, purified from hybridoma supernatant; also called parent antibody MAb1
